# Test results: patent publication US20260035433A1
# Target: His-Tagged rhFc(gamma) receptor I (recombinant human Fc(gamma)R-I; Acro Biosystems, catalog# FCA-H52H1) (human)
# Test: ELISA, control IgG coated, His-tagged rhFc(gamma)RI in solution, anti-His-HRP
# His-Tagged rhFc(gamma) receptor I (recombinant human Fc(gamma)R-I; Acro Biosystems, catalog# FCA-H52H1) (human), sequence (P12314 16-292): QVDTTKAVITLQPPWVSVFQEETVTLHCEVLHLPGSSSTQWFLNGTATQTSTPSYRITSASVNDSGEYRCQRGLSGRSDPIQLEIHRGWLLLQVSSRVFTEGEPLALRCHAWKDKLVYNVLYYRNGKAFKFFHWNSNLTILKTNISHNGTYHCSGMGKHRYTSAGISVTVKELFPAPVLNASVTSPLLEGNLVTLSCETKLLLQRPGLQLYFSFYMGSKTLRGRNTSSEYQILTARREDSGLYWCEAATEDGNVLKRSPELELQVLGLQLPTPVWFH
substance,measurement,value
"Dog IgG, Control Rockland-Inc, Cat# 004-0102-005 (antibody)",OD450 at 222 ng/ml Fc(gamma) RI,0.686 OD450
